Measurements from PMC11210195 (Frontiers in Immunology, 2024).

Tests used:
[1] = molecular target: cytokine-Fc Fusion Y436A (human); assay: SPR; cytokine-Fc Fusion constructs captured via anti-PGLALA F(ab')2 fragment (35-40 RU); PRYSPRY injected, two-fold series; 25°C, HBS-EP+ pH 7.4; 1:1 fit; details: both partners purified
[2] = molecular target: the molecule itself; assay: SEC-MALS; TRIM21-CC-PS alone, 1 mg/mL, 50 µg injected, Superdex200 Increase 10/300 GL, PBS pH 7.4
[3] = molecular target: cytokine-Fc Fusion Y436A (human); assay: SPR; cytokine-Fc Fusion constructs captured via anti-PGLALA F(ab')2 fragment at low density; TRIM21-CC-PS injected; 25°C, HBS-EP+; apparent (avidity) constants; details: both partners purified

B1: TRIM21 PRYSPRY domain (domain or fragment, human, UniProt P19474-1 277-475, looked up)
chain: GLKKMLRTCAVHITLDPDTANPWLILSEDRRQVRLGDTQQSIPGNEERFDSYPMVLGAQHFHSGKHYWEVDVTGKEAWDLGVCRDSVRRKGHFLLSSKSGFWTIWLWNKQKYEAGTYPQTPLHLQVPPCQVGIFLDYEAGMVSFYNITDHGSLIYSFSECAFTGPLRPFFSPGFNDGGKNTAPLTLCPLNIGSQGSTDY
modifications: biotinylated where it was captured via monovalent streptavidin
notes: human TRIM21 (Ro52, RNF81), PRYSPRY domain, amino acids 277 to 475 of isoform 1; also called PS; TRIM21 PRYSPRY variant; source: E. coli BL21 DE3, purified (Ni-NTA, Superdex S-200 gel filtration) by Proteros Biostructures; not shown: His-Avi-Tag (via a (4GS)1 linker), C-terminal, kept
fold change of off rate against WT [1]: 23 fold | fold change of on rate against WT [1]: 8 fold | fold decrease of affinity against mAb1 Fc WT [1]: 180 fold | t1/2 of dissociation [1]: 0.3 s

B2: TRIM21-coiled-coil-PRYSPRY (TRIM21-CC-PS) (domain or fragment, human, UniProt P19474-1 128-475, looked up)
chain: LEEAAQEYQEKLQVALGELRRKQELAEKLEVEIAIKRADWKKTVETQKSRIHAEFVQQKNFLVEEEQRQLQELEKDEREQLRILGEKEAKLAQQSQALQELISELDRRCHSSALELLQEVIIVLERSESWNLKDLDITSPELRSVCHVPGLKKMLRTCAVHITLDPDTANPWLILSEDRRQVRLGDTQQSIPGNEERFDSYPMVLGAQHFHSGKHYWEVDVTGKEAWDLGVCRDSVRRKGHFLLSSKSGFWTIWLWNKQKYEAGTYPQTPLHLQVPPCQVGIFLDYEAGMVSFYNITDHGSLIYSFSECAFTGPLRPFFSPGFNDGGKNTAPLTLCPLNIGSQGSTDY
modifications: biotinylated where it was captured via monovalent streptavidin
notes: human TRIM21 (Ro52, RNF81), coiled-coil and PRYSPRY domains, amino acids 128 to 475 of isoform 1; also called PRYSPRY-coiled-coil variant; source: E. coli BL21 DE3, purified (Ni-NTA, Superdex S-200 gel filtration) by Proteros Biostructures; not shown: His-Avi-Tag (via a (4GS)1 linker), C-terminal, kept
stoichiometry N [2]: 2 | avidity enhancement (K_(D,AFFINITY)/K_(D,AVIDITY)) [3]: 14 fold | fold weaker against the WT avidity [3]: 766 fold
